Test results reported in the DeepSol protein solubility set.

experiment: soluble on expression in E. coli; label from the status in PepcDB or PDB records

| Sequence | soluble on expression in E. coli |
| --- | --- |
| MAHHHHHHMGTLEAQTQGPGSMMAASHDDDTVDGLATAVRGGDRAALPRAITLVESTRPDHREQAQQLLLRLLPDSGNAHRVGITGVPGVGKSTAIEALGMHLIERGHRVAVLAVDPSSTRTGGSILGDKTRMARLAVHPNAYIRPSPTSGTLGGVTRATRETVVLLEAAGFDVILIETVGVGQSEVAVANMVDTFVLLTLARTGDQLQGIKKGVLELADIVVVNKADGEHHKEARLAARELSAAIRLIYPREALWRPPVLTMSAVEGRGLAELWDTVERHRQVLTGAGEFDARRRDQQVDWTWQLVRDAVLDRVWSNPTVRKVRSELERRVRAGELTPALAAQQILEIANLTDR | soluble |
| MSLARLKVKVWGEYACFSRPEFKVERVSYPVPTPSAARGLLEAIFWKPEFRYEVRRIGVLRLGTPFALLRNEVGNRMGAKPFFVEDARQQRTSLVLKDVAYLVEADMVLRPHATDPLPKYLEQFERRLKKGQYHHTPYLGTREFPAYFSPPDGEVPDGGLNLDLGPMLFDLAFVEDPGRPELTFKRPGRGEVQGYALPLFFHARIREGWLEVPAEKYQELYRLEEGHAKGAEGHHHHHH | soluble |
| MGSDKIHHHHHHQPIPDMAKAQTAALNSITAADLSAYLHIVASDSMEGRATGEAGQKRTALYLADKFKEFGLSPAVPTAVDKSYFQKFSLVEKTWKEVWLKVGNKQKEFLKDFYAYGDVQLPEATAMKIVCAGYGIEARNYSDYTNLDVKDKGVIIFTGEPFKDSVSLVTKTKQSSTWANDWRAKADLAYKKGAKAVFIIVGNTDTDFETRLAALKDHLNAPSMAFTHKKKASAFFVPASLAAEMLKSTPDALASYKKNRTGTNTPYPFKSAKVIAKAGVTERTVETENVLAVIEGSRYPEEIVVLTAHYDHLGIENGQICYGADDDGSGTVALLEIAQAFSIAKSLGHGPARTILFMPVTGEERGLMGSEYYTDKPVFPLKNTVADLNIDMIGRVDAAHPNVIDENYVYIIGDNRLSSELHTLSENANTGWQGPKIVLDYTYNSFDDPNRFYYRSDHYNFAKNNIPVIFYFSGIHADYHKPTDTVDKIRFDKMAKITQLVFLTAWQLANMDHRLVVDRTE | not soluble |
| MEFYPIHILLSKLEEEIAFQQKMATTYLVSPPKYSPEVIGTVSETLRRISADLKLVSLILGELEEVQERDIKEEALILSSESLSLISLLLPAIEKYAPFFLESMKVERKPILEKLEDVMAEIENAIEKLELSSSREIIRSLEELAQSLEISLKMGERILERES | not soluble |
| MSLDNKRIEELKEVLKSLNKIGITEELRKEALDIVKNINPIELSIAEQQLIEEGMNPQDLRHLCDIHMEVLKDELTKVKASTSKGHVLYTLIEEHDKILDFLKELEEVNSNIQKTENYDEAKDETHRLYNLAESILDAENHHQREEKVLFLEMEKREITGPTRIMKMEHDDLRAKKKELKMLSKSVDTMDFREFKSKVDEVSKYIIFNLRDHIFKENYILYPSALEAIKDKDMWDDMKRRCDEVGYCSFTFSNEGHHHHHH | soluble |
| MKLFQPSEIVTSLPTQFFASLVAKVNKVVAAGHDVINLGQGNPDQPTPQHIVKALQDAAEKTIHHKYPPFRGHESLKEAVATFYQREYDVVVNPKTEVAILFGGKAGLVELPVCFTNPGDTILVPDPGYPDYLSGVALAKAQFETMPLIAENNFLPDYTKIDDSIAERAKLMFLNYPNNPTGATASKDFFDETIHFANKHNILVVHDFAYGAIGFDGQKPVSFLQADGAKDTGIEIYTLSKTFNMAGWRIAFAVGNESVIETINLLQDHMYVSIFGAIQDAAREALLSSQSCVIDLVNSYESRRNALISACHSIGWNVDIPTGSFFAWLPVPEGYTSEQFSDILLEKAHVAVAPGVGFGEHGEGYVRVGLLHTEDRLREAINRIDKLNFFKK | not soluble |
| MPRTFEEECDFIDRLTDTKFRIKKGFVPNMNVEGRFYVNNSLEQLMFDELKFSCDGQGIGGFLPAVRQIANVASLPGIVGHSIGLPDIHSGYGFSIGNIAAFDVGNPESVISPGGVGFDINCGVRLLRTNLFEENVKPLKEQLTQSLFDHIPVGVGSRGAIPMLASDLVECLEMGMDWTLREGYSWAEDKEHCEEYGRMLQADASKVSLRAKKRGLPQLGTLGAGNHYAEVQVVDEIYDKHAASTMGIDEEGQVVVMLHCGSRGLGHQVATDSLVEMEKAMARDGIVVNDKQLACARINSVEGKNYFSGMAAAANFAWVNRSCITFCVRNAFQKTFGMSADDMDMQVIYDVSHNVAKMEEHMVDGRPRQLCVHRKGATRAFPAHHPLIPVDYQLIGQPVLIGGSMGTCSYVLTGTEQGLVETFGTTCHGAGRALSRAKSRRTITWDSVIDDLKKKEISIRIASPKLIMEEAPESYKNVTDVVDTCDAAGISKKAVKLRPIAVIKG | not soluble |
| MRITFIGGGNMAGAIIGGLARQGGHRIHVVEHQQDKLDQLAAGFGCSGSQALPERFAADEVVVLAVKPQQLRELCLALAPVLNGALVVSIAAGIRLDALARWLGSRRIVRVMPNTPAMVGKGVSGLYADAAVSAADRDAAETVMRAAGLTVWLADEAGIDDITCVSGSGPAYVFYFIESMIEAAAKAGFGEDKARELVLATFDGAVELARQSPLPVAELRRNVMSKGGTTERAIARFEAEGVKAAIVAGAMDCRDRSIEMGRELSQELEHHHHHH | soluble |
| MSLDDAKLTASKEAKRIVIQSIQRVATETAIENSVTVFHIESDEIKGRIIGREGRNIRALEAATGVEIVVDDTPEAIVLSAFDPVRREIARLALHQLVTDGRIHPARIEEVVSKVRKQVEEEIIETGKRTTIDLGIHGLHPELIRIIGKMKYRSSYGQNLLQHARETANLCAVMASELGLNPKKAKRAGLLHDIGKVPDEEPELPHALLGMKLAEKYKEKPDICNAIGAHHDETEMTSLLAPIVQVCDAISGARPGARREIVEAYIKRLNDLEQLAMAYPGVTKTYAIQAGRELRVIVGADKIDDKQTESLSGEIAKKIQDEMTYPGQVKITVIRETRAVSFAKEGHHHHHH | not soluble |
| MSDPLTAQEQHKRRQAVRELMPRTPFIGGLGIVFERYEPDDVVIRLPFRTDLTNDGTYFHGGVIASVMDTAGAAAAWSNHDFDRGTRAATVAMSIQYTGAAKRCDLLCHARTARRRKELTFTEITATDPDGNIVAHAVQTYRIV | not soluble |
| MGSSHHHHHHSSGLVPRGSHVHNKVTIIGSGPAAHTAAIYLARAEIKPILYEGMMANGIAAGGQLTTTTEIENFPGFPDGLTGSELMDRMREQSTKFGTEIITETVSKVDLSSKPFKLWTEFNEDAEPVTTDAIILATGASAKRMHLPGEETYWQKGISACAVCDGAVPIFRNKPLAVIGGGDSACEEAQFLTKYGSKVFMLVRKDHLRASTIMQKRAEKNEKIEILYNTVALEAKGDGKLLNALRIKNTKKNEETDLPVSGLFYAIGHTPATKIVAGQVDTDEAGYIKTVPGSSLTSVPGFFAAGDVQDSKYRQAITSAGSGCMAALDAEKYLTSLE | soluble |
| MGSDKIHHHHHHVGALLSKITATDLASTLTGDPEALHVHLTLVARDVSIKGHTVKIHCHCLTVDGNGRVQPHRLAEFMRNAVVDYAIPRSKVADAKARDLKYNSTEATTELVERAKRSFTDLANTGEGGEMLLFLLAERFLKLPQILCKMDLKTDTRMHYHGADGVYAGVTPSGTLKLYWGESKIYKKVGDAIRDCLASLAPFLIEPEHEDAERERDLILLSDKADLTNSELTGALKRYFDRSSEMSTRVQYCGVALVGFDAPFYPASDVKVLADQIVDGSRRALSDWSDKIGARLAAEKLSDMEIQLFCIPLPSADGFRAAFLKAMGIKGG | not soluble |
| MGHHHHHHSHMASVSSATFSGHGARSLLQFLRLVGQLKRVPRTGWVYRNVQRPESVSDHMYRMAVMAMVIKDDRLNKDRKL | not soluble |
| MGSDKIHHHHHHMYIEEIKRVLSDQRDVLEEKMSRKLVERDVPNLLKYLEVPNALAILGVRRSGKSTLSLLLLKRKKFAYVNFDDERFYNLNIGDLNKVLQAIYELYGVDVDYIVLDEIHNVKGWELFVSRLRDVKKLIITGSNSKMLSGELATYLTGRHSDYILFPFSFQEYLKYKEVKVEYFSTRVISTLKNELEKYTEVGGFPEALMLGKEQVNVIYNDILFKDIVSRYKIREIEKFREFARTVISYYSNEISLSSIAKILGLNKRTVEKWASGLREAYLTFFIPRYGEKLKQRLTYNKKVYVVDVGIVSNLAIKGKDKGRIIENLVAIKLLRELQGEEKLYYMRNNYEVDFYDEKNSRLIQVTYTSDKIENREIRGLIEGYRLTKAKKLLIITWDLEEKIQVEGVNIEVLPLYRFLLE | not soluble |
| MGSDKIHHHHHHMPGGGNGILYSNLAAVKEMKMNNLRVVIITGLSGSGKSTALRALEDIGFYCVDNMPVVLLPQFLEIQSDKSKDISQVAMVMDLREKSFIETYKGIFEQIKARGYKIEIVFLYATDDALLHRFSETRRVHPLSSVSIMEGIRLEREQLRALEEMADKVIDTTSCNVHQLKDIVQRHFLPSSTARRLFIHLISFGYRYGLPADADLVLDVRFLPNPYWVESLKSFNGHHQDVRRYVLSAEASSIFLQKLFDLMEFLIPLYEKEGKPRITIAVGCTGGKHRSVVMANELWSYFSGRDYPVNVNHRDVGKS | not soluble |
| MSLKNITIGMVGVGRIGRMHVANMLAVAETLKERDLNIEIVLADAMPGFAEQVGADMGVKAAASVDKLIEDGVDALFIATSTAGHVDVLRKGIAAKLPMFCEKPIASDVPESLNIIREIDAAGATVQVGHQRRFDLGYQEAKRRLDAGDLGWLHSLKAVSSDAFPPPVSYCATSGGLFRDVSLHDFDIIRWLTGQDIVEVYAKGSNNGDPEIGAVGDIDTGAALLTLADGTLATAIATRYNGAGHDVRLDVMGSKDSTIVGLDEKSAFASAEEGIDFPTGESHPTFAERFADAYKNECIAFVELILGERENPCTPADAVAAAIVADAAQLSLVTGEPVKIPTVREILEGSAQPVEVRALVPSEGHHHHHH | soluble |
| MLLFSAFLIFGFSIGFSEEASCRHPHERFIGTRCYAFVSKKHTYNTAKEYCDSHGYSLATVDNAITSNFLASSAATEFGSNNGQFWIGLSRKKDYELFNWDDGTIVSYTNFEAGFPNKQDFVAENVRNGRWQTLAEHKELEFVCSYDPTATTSAAPTTIPPTTTTTRAPTTTTVRKTTQTTATTMTTPKPTTTVSTTTTTTVPPTTTPKACPQGFVLFEPTQKCYIVLVYGNDSDYPDVPDDAPFLTRENQRCAKYGATVATIHSSDLNDLFRSLIYERFNDTRYATIGLRNIDMKTISGKWQWFDGTSPDYLNFGNMFPKTGDYIAQTSSQGFWVSYTHTAPNEGVVCSKNRKSERGFTGLVDIDQAAIKKLELQTYLK | not soluble |
| MALVFVYGTLKRGQPNHRVLRDGAHGSAAFRARGRTLEPYPLVIAGEHNIPWLLHLPGSGRLVEGEVYAVDERMLRFLDDFESCPALYQRTVLRVQLLEDRAPGAEEPPAPTAVQCFVYSRATFPPEWAQLPHHDSYDSEGPHGLRYNPRENR | soluble |
| MGSDKIHHHHHHMQKESIYGLTREQLVDWFLAHGEKKFRATQVWEWLYTKRVASFSEMSNISKSLMTLLEENFSLNPLKQVIVQEAQDGTVKYLFELPDKNMIETVLMRQEYGLSVCVTTQVGCNIGCTFCASGLLKKQRDLTAGEIVAQIMWVQHYFDERGLDERVSHVVVMGIGEPFDNYANVMNFLRTINDDKGLAIGARHITVSTSGLVPKIREFADSGLQVNLAISLHAPNNEVRTSIMRINRSFPIEKLMAAIDEYIEKTNRRVTFEYIMLSQVNDRPEHAQQLADLLRNKKKLSYVNLIPYNPVSEHDQYSRSSKEAVLKFYDVLKKNGINCVIRKEHGTDIDAACGQLRSKQMKKEKVKNQ | not soluble |
